Patent US20140271640A1, “FGF-10 Complexes” (Permeon Biologics, Inc., priority 2012, published 2014)

Assays:
[1] = tested on: SKOV-3 ovarian cancer cells; experiment: SKOV-3 cell viability MTS assay with endosome escape agent; type: cell-based, human; conditions: 1 uM protein, 4 hours, with endosome escape agent (strongest at 13.3 nM)
Procedure: SKOV-3 ovarian cancer cells were plated in a 96-well format and grown overnight. Cells were incubated with test articles: a) 1 uM of p16, b) 1 uM of +36GFP-p16, c) 1 uM of FGF10-p16 or d) no treatment in the presence of various concentrations of an endosome escape agent such as PFO (five 3× dilution starting from 40 nM; exemplary endosomal escape agents, such as PFO or PFO-like agents, are disclosed in WO2012/094653) for 4 hours in serum-free medium. One group of cells, called “untreated cells” received no test article treatment and no PFO treatment. After incubation, the media from all cell wells was aspirated and fresh complete medium was added for 3 hours. Cell viability was assessed using an MTS assay. Results are reported as number of viable cells as % relative to the untreated cells.
The CDK4/6 inhibitor PD-0332991 was used as positive control for inhibition of cell proliferation in the p16 deficient SKOV-3 cell line (FIG. 22).

[2] = tested on: HepG2 (hepatoma), Hela cells, SW626 cells (ovarian); experiment: Cell penetration of p16 fusion proteins, flow cytometry; type: cell-based; conditions: 2 uM, overnight
Procedure: On the day prior to the assay, HepG2 (hepatoma), Hela cells, and 10^6 SW626 cells (ovarian) were plated in each well of a 6-well plate and incubated in the 37° C. CO2 incubator. The cells were washed once with PBS and then were replenished with 2 mL of growth media containing 2 uM of p16, +36GFP-p16 or FGF10-p16 proteins and were incubated overnight in the 37° C. CO2 incubator. The cells were then washed once with PBS and detached with 0.25% trypsin/EDTA. The cells were fixed for 10 minutes with 1 mL 4% formaldehyde and permeabilized for 5 minutes with 0.5 mL 0.4% saponin. Then 2.5 uL of 1 mg/mL FITC labeled chicken polyclonal anti-myc tag antibody (Abcam #1394) was added to all the cells and incubated at 4° C. in the dark for 2 hours, except for cells treated with +36GFP-p16 (GFP itself was used for detection). The cells were washed twice with ice cold PBS and were analyzed using a BD Accuri™ C6 flow cytometer.

[3] = molecular target: FGFR2b receptor (Homo sapiens, UniProt P21802); conditions: relative to wild-type FGF10; cited from earlier work
FGFR2b receptor, sequence (P21802 22-822 isoform P21802-3 limits assumed): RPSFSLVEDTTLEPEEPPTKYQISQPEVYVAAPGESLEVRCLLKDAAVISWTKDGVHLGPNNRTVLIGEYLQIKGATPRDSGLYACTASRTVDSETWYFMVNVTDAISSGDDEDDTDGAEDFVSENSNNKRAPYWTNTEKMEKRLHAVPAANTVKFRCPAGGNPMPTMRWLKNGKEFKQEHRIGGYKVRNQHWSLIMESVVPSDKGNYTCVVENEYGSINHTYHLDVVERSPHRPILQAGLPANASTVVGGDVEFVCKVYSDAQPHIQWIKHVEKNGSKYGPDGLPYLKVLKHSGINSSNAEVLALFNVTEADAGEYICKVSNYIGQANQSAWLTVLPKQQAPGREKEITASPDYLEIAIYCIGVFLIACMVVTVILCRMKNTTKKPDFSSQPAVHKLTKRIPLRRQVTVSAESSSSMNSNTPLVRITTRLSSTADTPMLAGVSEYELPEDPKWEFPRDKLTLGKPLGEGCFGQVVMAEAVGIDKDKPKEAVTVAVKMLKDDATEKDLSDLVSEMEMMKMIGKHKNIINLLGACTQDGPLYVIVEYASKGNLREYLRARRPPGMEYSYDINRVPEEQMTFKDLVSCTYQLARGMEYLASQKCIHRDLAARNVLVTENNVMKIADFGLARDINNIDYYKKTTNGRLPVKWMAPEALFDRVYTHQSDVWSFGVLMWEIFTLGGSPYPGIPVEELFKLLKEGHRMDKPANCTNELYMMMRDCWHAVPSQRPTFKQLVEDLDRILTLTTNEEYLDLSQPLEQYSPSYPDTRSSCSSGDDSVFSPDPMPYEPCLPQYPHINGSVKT

[4] = Microautoradiography analysis (MARG) of cellular distribution in liver and kidney; type: in vivo, mice
Procedure: To obtain specific cell-type uptake information in select organs, microautoradiography analysis was performed on selected organs collected at various time points. For microautoradiography analysis (MARG), animals were anesthetized and blood collected, as described above. Tissue samples are trimmed to be approximately 0.5 cm^2, placed into cryosectioning embedding media on a cryosectioning sample holder, and frozen in isopentane that is cooled with liquid nitrogen. Frozen samples were stored in liquid nitrogen until analysis by MARG. For analysis, tissues were cryosectioned at 5 μm under darkroom conditions, and collected onto glass slides that are pre-coated with photographic emulsion (Kodak NTB photographic emulsion). Slides were placed in sealed light-safe slide boxes and allowed to expose the photographic emulsion for 7 days before being developed, fixed and stained with hematoxylin and eosin. All slides were examined for cellular localization using light microscopy.

[5] = Stability of Hisx6-FGF10-Myc following freeze/thaw cycles (A280, analytical SEC); type: physicochemical; conditions: after two (multiple) freeze/thaw cycles
Procedure: The stability of this cell penetrating domain of FGF10 was evaluated following multiple freeze/thaw cycles. To do this, protein concentration measurements and analytical size exclusion chromatography were carried out comparing protein which had undergone zero, one, or two freeze/thaw cycles. […] The study indicated about 75% stability of this protein after two freeze/thaw cycles.
Purified protein was subjected to the indicated number of freeze/thaw cycles (each freeze/thaw cycle consisted of snap-freezing the protein in liquid nitrogen, placing it at −80° C. for a minimum of two hours, and then thawing it on ice) and analyzed by size exclusion chromatography. After each thaw, the protein was subjected to 20,000×g centrifugation to remove any precipitation. The protein concentration of each sample was measured by A280, considering the extinction coefficient (24540) and molecular weight (19.57 kDa). In each case 40 μL of the protein was applied to a Superdex 75 10/300 GL column (GE Healthcare). The column running buffer was the same as the protein storage buffer (20 mM Hepes, pH 7.5, 0.5 M NaCl).

[6] = tested on: Hela cells; experiment: Cell penetrating activity of FGF10 domain, anti-myc flow cytometry; type: cell-based; conditions: 1 uM, 20 minutes
Procedure: On the day prior to the assay, 10^6 Hela cells were plated in each well of a 6-well plate and incubated in the 37° C. CO2 incubator overnight. The cells were washed once with PBS and then were replenished with 1 mL of serum-free DEMEM (A) or media containing 1 uM of the FGF10 domain construct FGF10-myc (B, C, and D) and were incubated for 20 minutes in the 37° C. CO2 incubator. The cells were then washed three times with ice-cold PBS. For (C) and (D), cells were treated with 0.25% trypsin/EDTA and washed three times with PBS. The cells in (D) were fixed for 10 minutes with 1 mL 4% formaldehyde and permealized for 5 minutes with 0.2% saponin. Then 10 uL of 0.1 mg/mL FITC labeled chicken polyclonal anti-myc tag antibody (Abcam #1394) was added to all the cells and incubated at 4° C. in the dark for 2 hours. The cells were washed three times with ice cold PBS. Cells in (A) and (B) were detached with 1 mL 10 mM EDTA. Cells were analyzed using a BD Accuri™ C6 flow cytometer.

[7] = mouse, in vivo, iv
[8] = mouse, in vivo
[9] = molecular target: FGFR-1b (Homo sapiens, UniProt P11362); conditions: cited from earlier work
FGFR-1b, sequence (P11362 22-822 isoform P11362-19 limits assumed): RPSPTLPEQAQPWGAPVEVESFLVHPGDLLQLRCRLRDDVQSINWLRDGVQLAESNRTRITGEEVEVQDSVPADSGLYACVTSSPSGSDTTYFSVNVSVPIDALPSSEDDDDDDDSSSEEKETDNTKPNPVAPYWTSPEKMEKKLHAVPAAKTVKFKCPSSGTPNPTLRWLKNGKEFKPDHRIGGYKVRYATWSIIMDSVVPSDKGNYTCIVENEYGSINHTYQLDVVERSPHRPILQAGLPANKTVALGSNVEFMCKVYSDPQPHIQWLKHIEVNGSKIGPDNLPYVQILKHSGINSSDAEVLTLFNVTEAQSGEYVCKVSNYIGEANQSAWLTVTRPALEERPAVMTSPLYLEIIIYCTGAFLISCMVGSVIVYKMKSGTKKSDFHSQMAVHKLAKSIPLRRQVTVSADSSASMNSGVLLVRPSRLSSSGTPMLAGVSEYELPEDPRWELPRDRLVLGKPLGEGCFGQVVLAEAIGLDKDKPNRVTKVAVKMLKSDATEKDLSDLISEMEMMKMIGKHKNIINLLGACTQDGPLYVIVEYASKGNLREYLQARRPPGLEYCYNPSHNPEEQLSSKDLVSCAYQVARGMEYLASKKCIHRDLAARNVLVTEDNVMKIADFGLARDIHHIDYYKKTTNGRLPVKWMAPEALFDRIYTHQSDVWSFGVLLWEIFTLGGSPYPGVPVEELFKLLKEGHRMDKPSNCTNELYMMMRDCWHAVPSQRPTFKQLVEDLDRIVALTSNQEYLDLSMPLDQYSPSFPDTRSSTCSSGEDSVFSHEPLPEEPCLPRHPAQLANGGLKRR

B1: FGF10-p16: fusion protein of FGF10 domain (SEQ ID NO: 2), (G4S)2 linker and human p16 (protein)
chain: MEQKLISEEDLGSGRHVRSYNHLQGDVRWRKLFSFTKYFLKIEKNGKVSGTKKENCPYSILEITSVEIGVVAVKAINSNYYLAMNKKGKLYGSKEFNNDCKLKERIEENGYNTYASFNWQHNGRQMYVALNGKGAPRRGQKTRRKNTSAHFLPMVVHSGHGGGGSGGGGSMEPAAGSSMEPSADWLATAAARGRVEEVRALLEAGALPNAPNSYGRRPIQVMMMGSARVAELLLLHGAEPNCADPATLTRPVHDAAREGFLDTLVVLHRAGARLDVRDAWGRLPVDLAEELGHRDVARYLRAAAGGTRGSNHARIDAAEGPSDIPDGHGHHHHHH
- number of viable cells / cell proliferation [1]: significant reduction in the number of viable cells
- treated cells stained positive ([2]; trypsin detached): ~30%

B2: p16: human p16Ink4A tumor suppressor protein without penetrating polypeptide (protein, listed as Homo sapiens)
chain: MEPAAGSSMEPSADWLATAAARGRVEEVRALLEAGALPNAPNSYGRRPIQVMMMGSARVAELLLLHGAEPNCADPATLTRPVHDAAREGFLDTLVVLHRAGARLDVRDAWGRLPVDLAEELGHRDVARYLRAAAGGTRGSNHARIDAAEGPSDIPD
- number of viable cells / cell proliferation [1]: failed to block cell proliferation at levels higher than the background toxicity of an endosomal escape agent
- cell penetration [2]: does not

B3: FGF10 E158K/K195A: FGF-10 variant or fragment having two substitutions E158K/K195A (protein)
chain: GRHVRSYNHLQGDVRWRKLFSFTKYFLKIEKNGKVSGTKKENCPYSILEITSVEIGVVAVKAINSNYYLAMNKKGKLYGSKEFNNDCKLKERIEKNGYNTYASFNWQHNGRQMYVALNGKGAPRRGQKTRRANTSAHFLPMVVHS
- decrease in binding to the FGFR2b receptor (factor / fold) [3]: approximately 4

B4: FGF10: Hisx6- and Myc-tagged domain of human FGF10 with the amino acid sequence of SEQ ID NO: 2 (protein, listed as Homo sapiens)
chain: GRHVRSYNHLQGDVRWRKLFSFTKYFLKIEKNGKVSGTKKENCPYSILEITSVEIGVVAVKAINSNYYLAMNKKGKLYGSKEFNNDCKLKERIEENGYNTYASFNWQHNGRQMYVALNGKGAPRRGQKTRRKNTSAHFLPMVVHS
modifications: His6 and Myc tags
- cellular distribution in kidney (MARG) ([4]; kidney): uniformly distributed throughout the kidney
- cellular distribution in liver (MARG) ([4]; liver): uniformly distributed throughout the liver tissue including in hepatocytes
- stability after freeze/thaw cycles ([5]; listed as His6-FGF10-myc): 75%
- stability after freeze/thaw cycles ([5]; listed as Hisx6-FGF10-Myc): about 75%
- cells with protein present on the cell membrane ([6]; no trypsin): 98.8%
- cells stained positive after trypsin treatment (internalized protein) ([6]; trypsin, fixed and permeabilized): almost all the cells stained positive
- travel beyond the injection site [7]: able to travel significantly beyond the area of the injection site
- partitioning between plasma compartment and blood cell compartment [8]: favor the plasma compartment over the blood cell compartment
- plasma concentration compared with Tat-TK or +36GFP [8]: higher concentrations in plasma 1 hour post-injection than Tat-TK or +36GFP

B5: FGF10 R78A: FGF-10 variant or fragment having one substitution R78A (protein)
chain: GRHVRSYNHLQGDVAWRKLFSFTKYFLKIEKNGKVSGTKKENCPYSILEITSVEIGVVAVKAINSNYYLAMNKKGKLYGSKEFNNDCKLKERIEENGYNTYASFNWQHNGRQMYVALNGKGAPRRGQKTRRKNTSAHFLPMVVHS
- decrease in binding to the FGFR2b receptor (factor / fold) [3]: approximately 4

B6: Fibroblast growth factor 10 (FGF-10): native FGF family member, ligand of FGFR-2b (protein, UniProt O15520 38-208, looked up)
Fibroblast growth factor 10: QALGQDMVSPEATNSSSSSFSSPSSAGRHVRSYNHLQGDVRWRKLFSFTKYFLKIEKNGKVSGTKKENCPYSILEITSVEIGVVAVKAINSNYYLAMNKKGKLYGSKEFNNDCKLKERIEENGYNTYASFNWQHNGRQMYVALNGKGAPRRGQKTRRKNTSAHFLPMVVHS
- binding affinity to FGFR-1b as % of binding affinity to FGFR-2b [9]: about 10%
